Test results taken from publication PMC5961032.

Tests used:
[1] = molecular target: PP1α (7–330) (UniProt P62136)
[2] = molecular target: native catalytic subunit of PP1 from rabbit skeletal muscle (PP1^N) (rabbit) (UniProt P62139)
UniProt P62139, sequence (P62139 whole entry): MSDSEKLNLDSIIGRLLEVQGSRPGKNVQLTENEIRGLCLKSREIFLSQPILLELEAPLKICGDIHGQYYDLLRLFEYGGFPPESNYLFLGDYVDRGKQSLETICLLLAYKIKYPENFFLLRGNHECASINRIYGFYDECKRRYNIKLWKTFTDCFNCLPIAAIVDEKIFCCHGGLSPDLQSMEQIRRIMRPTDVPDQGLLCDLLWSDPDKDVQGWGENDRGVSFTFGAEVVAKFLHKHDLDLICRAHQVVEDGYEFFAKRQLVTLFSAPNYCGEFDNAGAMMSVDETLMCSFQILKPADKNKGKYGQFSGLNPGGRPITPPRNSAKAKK

PPP1R15A^325–636-MBP, sequence (O75807 325-636): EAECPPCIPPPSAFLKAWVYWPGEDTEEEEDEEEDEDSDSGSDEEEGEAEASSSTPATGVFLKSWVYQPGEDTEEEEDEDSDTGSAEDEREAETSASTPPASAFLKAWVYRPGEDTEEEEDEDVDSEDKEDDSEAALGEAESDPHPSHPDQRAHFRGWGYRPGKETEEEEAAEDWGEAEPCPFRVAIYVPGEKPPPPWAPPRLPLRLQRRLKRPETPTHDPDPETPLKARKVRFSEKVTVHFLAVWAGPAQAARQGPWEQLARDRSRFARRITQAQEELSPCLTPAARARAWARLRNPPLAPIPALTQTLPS
MBP-PPP1R15A^325–636, sequence (O75807 325-636): as above
UniProt P62136, sequence (P62136 7-330): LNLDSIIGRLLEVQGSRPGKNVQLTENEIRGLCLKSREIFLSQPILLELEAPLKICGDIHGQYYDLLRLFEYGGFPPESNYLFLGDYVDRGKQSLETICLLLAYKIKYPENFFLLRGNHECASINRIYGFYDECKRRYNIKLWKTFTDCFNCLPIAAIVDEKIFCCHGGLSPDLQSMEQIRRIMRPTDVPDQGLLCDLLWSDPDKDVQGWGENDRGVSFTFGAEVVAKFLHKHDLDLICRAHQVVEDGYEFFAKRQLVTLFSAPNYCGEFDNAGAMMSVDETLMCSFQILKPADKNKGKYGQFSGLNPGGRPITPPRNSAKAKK

EC50 of the stimulation of eIF2α^P (2 μM) dephosphorylation by PP1α (24 nM) with G-actin (400 nM), MBP-PPP1R15A^325–636 0–100 nM, 20 min at 30 °C [1]	EC50 of the stimulation of eIF2α^P (2 μM) dephosphorylation by PP1^N (20 nM) with G-actin (400 nM), PPP1R15A^325–636-MBP 0–100 nM, 30 min at 30 °C [2]	Substance
6 nM		MBP-PPP1R15A^325–636 (from UniProt O75807 325-636) (domain or fragment)
	58 nM	PPP1R15A^325–636-MBP (from UniProt O75807 325-636) (domain or fragment)
